Test [1] concerns the target T1, IL-12/23 p40 (Sino biological, 10052-H08H) (UniProt P29460 23-328).
T1 construct: Bought protein
T1 sequence (looked up): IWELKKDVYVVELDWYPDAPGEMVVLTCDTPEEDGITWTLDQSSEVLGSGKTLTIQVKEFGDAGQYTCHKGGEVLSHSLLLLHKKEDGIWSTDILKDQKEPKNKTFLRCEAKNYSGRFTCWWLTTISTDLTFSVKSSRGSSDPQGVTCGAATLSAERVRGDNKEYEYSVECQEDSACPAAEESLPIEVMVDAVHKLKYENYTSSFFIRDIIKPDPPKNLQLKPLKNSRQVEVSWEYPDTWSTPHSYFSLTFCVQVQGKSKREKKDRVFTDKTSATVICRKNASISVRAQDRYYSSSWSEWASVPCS
Put plainly: competition ELISA: biotin-labeled p40 to coated IL-12Rβ1. On the procedure: (§1) A receptor protein was diluted to 2 μg/mL with PBS at pH 7.4 (BasalMedia, B320) and added to a 96-well microplate (Corning, 3590) at 100 μL/well. The plate was incubated at 4° C. overnight. After the liquid was discarded, 200 μL of 1% Casein blocking solution (Thermo, 37528) was added to each well for blocking, and the plate was incubated at 37° C. for 2 h. After the blocking was completed, the blocking solution was discarded, and the plate was washed 3 times with a PBST buffer (PBS at pH 7.4 containing 0.1% tween-20) for later use. A biotin-labeled ligand protein at a fixed concentration was mixed with the antibody or fusion protein diluted in gradient, pre-incubated at 37° C. for 30 min, and added to a blocked microplate. The plate was incubated at 37° C. for 1.5 h. After the incubation was completed, the plate was washed 3 times with PBST. 100 μL of streptavidin-HRP (Invitrogen, 434323, diluted at a ratio of 1:4000) was added to each well, and the plate was incubated at 37° C. for 1 h. The supernatant was removed, and the plate was washed 3 times with PBST. […] The plate was read for absorbance values at 450 nm on a microplate reader, the curves for the inhibition of the binding of the ligands to the receptors were fitted with software, and the IC₅₀ values were calculated. […]
(In general: ELISA stands for enzyme-linked immunosorbent assay.)

Test [2] concerns the target T2, human APRIL (5860-AP-010/CF, R&D Systems) (human, UniProt O75888 115-250, limits assumed).
T2 construct: Bought protein
T2 sequence (looked up): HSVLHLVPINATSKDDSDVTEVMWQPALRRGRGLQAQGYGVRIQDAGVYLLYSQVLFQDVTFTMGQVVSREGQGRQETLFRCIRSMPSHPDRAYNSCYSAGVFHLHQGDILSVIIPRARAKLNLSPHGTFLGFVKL
The test can be described thus: ELISA, APRIL coated.

In test [3] the target is T3, cynomolgus monkey p40 (10215-CL, R&D Systems) (cynomolgus monkey).
T3 construct: Bought protein
Put plainly: SPR (Biacore), sample captured on Protein A, antigen flowed, 1:1 fit. On the procedure: (§2) A certain amount of test sample was subjected to affinity capture by a biosensor chip Protein A (GE, 29127556), then antigens at a series of concentration gradients were allowed to flow on the surface of the chip. The reaction signals were detected in real time by using Biacore (GE, 8K) to obtain association and dissociation curves. After the dissociation was completed for each cycle, the biochip was washed and regenerated with a 10 mM glycine-hydrochloric acid solution at pH 1.5 (GE, BR-1003-54). The experimental data were fitted using BIAevaluation version 4.1, GE software with a 1:1 model to obtain affinity values. The related antigen proteins used in this assay are as follows: human IL-23 (CT048-H08H, Sino biological), human IL-12 (CT050-H08H, Sino biological), human BAFF (10056-HNCH, Sino biological), human APRIL (5860-AP-010/CF, R&D Systems), cynomolgus monkey p40 (10215-CL, R&D Systems), cynomolgus monkey BAFF (BAF-CM412B, Kactus), cynomolgus monkey APRIL (APR-CM410B, Kactus), mouse BAFF (BAF-M521y, Acro Biosystems), and mouse APRIL (7907-AP/CF, R&D Systems).
A general note: Surface plasmon resonance follows binding to a sensor surface in real time, without labels.

Test [4] has as its target T4, human IL-23 (CT048-H08H, Sino biological) (human, UniProt Q9NPF7 20-189; P29460 23-328).
T4 construct: Bought heterodimer
T4 sequence (looked up) 1: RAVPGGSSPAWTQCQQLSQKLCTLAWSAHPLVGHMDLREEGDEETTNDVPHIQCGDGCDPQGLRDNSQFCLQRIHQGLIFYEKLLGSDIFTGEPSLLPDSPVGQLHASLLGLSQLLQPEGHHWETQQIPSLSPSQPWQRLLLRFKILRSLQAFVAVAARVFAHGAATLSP
T4 sequence (looked up) 2: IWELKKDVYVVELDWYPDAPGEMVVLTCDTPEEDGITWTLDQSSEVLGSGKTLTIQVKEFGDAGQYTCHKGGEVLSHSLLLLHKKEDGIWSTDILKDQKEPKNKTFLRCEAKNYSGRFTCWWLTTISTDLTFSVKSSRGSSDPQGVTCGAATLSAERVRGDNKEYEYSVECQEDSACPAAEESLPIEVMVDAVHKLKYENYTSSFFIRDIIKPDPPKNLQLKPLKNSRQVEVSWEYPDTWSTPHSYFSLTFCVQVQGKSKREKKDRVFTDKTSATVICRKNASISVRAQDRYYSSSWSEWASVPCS
The test is described as above. On the procedure: as §2

The target of test [5] is T5, human IL-12 (CT050-H08H, Sino biological) (human, UniProt P29459 23-219; P29460 23-328).
T5 construct: Bought heterodimer
T5 sequence (looked up) 1: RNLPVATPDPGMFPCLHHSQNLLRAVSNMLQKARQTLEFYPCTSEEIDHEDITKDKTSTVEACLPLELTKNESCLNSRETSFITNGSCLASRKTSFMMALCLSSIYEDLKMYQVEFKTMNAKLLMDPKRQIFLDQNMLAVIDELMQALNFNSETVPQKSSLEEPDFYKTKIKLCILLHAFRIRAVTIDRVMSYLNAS
T5 sequence (looked up) 2: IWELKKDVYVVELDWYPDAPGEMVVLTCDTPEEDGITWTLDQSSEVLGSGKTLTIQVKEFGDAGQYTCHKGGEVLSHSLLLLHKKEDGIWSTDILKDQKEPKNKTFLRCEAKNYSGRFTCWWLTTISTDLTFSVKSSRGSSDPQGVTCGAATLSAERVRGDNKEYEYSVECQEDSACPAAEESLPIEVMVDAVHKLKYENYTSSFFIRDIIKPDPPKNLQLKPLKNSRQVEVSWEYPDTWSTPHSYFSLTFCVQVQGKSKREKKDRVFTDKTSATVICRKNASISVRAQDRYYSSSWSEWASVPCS
Described as above. The method, then: as §2

The target of test [6] is T6, IL-23 (R&D Systems, 1290-IL-010) (UniProt Q9NPF7 20-189; P29460 23-328).
T6 sequence (looked up) 1: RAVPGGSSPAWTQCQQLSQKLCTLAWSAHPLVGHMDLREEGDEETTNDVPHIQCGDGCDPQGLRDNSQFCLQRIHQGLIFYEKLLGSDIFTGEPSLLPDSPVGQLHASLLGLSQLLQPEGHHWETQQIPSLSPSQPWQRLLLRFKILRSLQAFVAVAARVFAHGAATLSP
T6 sequence (looked up) 2: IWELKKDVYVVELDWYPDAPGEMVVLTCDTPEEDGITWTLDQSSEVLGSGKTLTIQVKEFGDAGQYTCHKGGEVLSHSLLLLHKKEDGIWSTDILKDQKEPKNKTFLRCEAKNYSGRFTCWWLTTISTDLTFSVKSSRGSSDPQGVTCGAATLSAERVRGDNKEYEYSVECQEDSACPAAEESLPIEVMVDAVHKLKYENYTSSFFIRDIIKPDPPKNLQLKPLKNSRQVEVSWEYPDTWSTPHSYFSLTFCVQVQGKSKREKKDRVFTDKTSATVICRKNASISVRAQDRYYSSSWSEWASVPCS
The test can be described thus: cell-based or functional assay.

Test [7] deals with T1, IL-12/23 p40 (Sino biological, …). The test can be described thus: ELISA, IL-12/23 p40 coated, sample titrated. On the procedure: The binding activity of the antibodies or fusion proteins for BAFF, APRIL, and IL-12/23 p40 was assayed by the ELISA method (coating an antigen protein). The specific procedures were as follows:
A BAFF (Sino biological, 10056-HNCH), APRIL (R&D Systems, 5860-AP-010/CF), or IL-12/23 p40 (Sino biological, 10052-H08H) protein was diluted to 1 μg/mL with a PBS (BasalMedia, B320) buffer at pH 7.4, and added to a 96-well microplate (Corning, 3590) at 100 μL/well. The plate was incubated at 4° C. overnight. After the liquid was discarded, 300 μL of 5% skim milk (BD, 232100) diluted with PBS was added to each well for blocking, and the plate was incubated at 37° C. for 2 h. After the blocking was completed, the blocking solution was discarded, and the plate was washed 3 times with a PBST buffer (PBS at pH 7.4 containing 0.1% tween-20). 100 μL of test antibody or fusion protein solution diluted in a gradient was added to each well, and the plate was incubated at 37° C. for 1 h. After the incubation was completed, the plate was washed 3 times with PBST. […] The plate was washed 3 times with PBST. […] The plate was read for absorbance values at 450 nm on a microplate reader, the binding curves of the antibodies to an antigen were fitted with software, and the EC₅₀ values were calculated.

Test [8] concerns the target T7, human BAFF (10056-HNCH, Sino biological) (human, UniProt Q9Y275 134-285).
T7 construct: Bought protein
The test can be described thus: ELISA, BAFF coated.

In test [9] the target is BAFF (R&D Systems, 7537-BF) (UniProt Q9Y275 134-285). The test can be described thus: cell-based or functional assay.
For test [10], the target named is T7, human BAFF (10056-HNCH, Sino biological). The test can be described thus: competition ELISA: biotin-labeled BAFF to coated TACI. The method, then: as §1
Test [11] shares this target. The test can be described thus: competition ELISA: biotin-labeled BAFF to coated BCMA. On the procedure:
as §1

Test [12] has as its target T8, cynomolgus monkey BAFF (BAF-CM412B, Kactus) (cynomolgus monkey, UniProt A0A2K5V2X4 134-285).
T8 construct: Bought protein
The test can be described thus: SPR (Biacore), sample captured on Protein A, antigen flowed, 1:1 fit. The method, then:
as §2

Test [13] addresses T9, mouse BAFF (BAF-M521y, Acro Biosystems) (mouse, UniProt Q9WU72 127-309).
T9 construct: Bought protein
The test is described as above. On the procedure:
as §2

Test [14] has as its target T7, human BAFF (10056-HNCH, Sino biological). The description is as above. The method, then: as §2
Test [15] deals with T1, IL-12/23 p40 (Sino biological, …). Put plainly: ELISA, IL-12/23 p40 coated.
Test [16] addresses T7, human BAFF (10056-HNCH, Sino biological). Put plainly: competition ELISA: BAFF-R coated on the plate, biotin-labelled BAFF at a fixed concentration pre-incubated with the diluted sample, streptavidin-HRP, OD450 (blocked ligand-receptor pair: BAFF/BAFF-R). On the procedure: as §1

What is called IC50 is the concentration at which inhibition is half-maximal. Usually Kd stands for the equilibrium constant for the complex coming apart. One may read the koff as the rate constant with which the complex falls apart. One may read the kon as the rate constant with which the complex forms. The EC50 is the concentration needed to bring the measured effect to its halfway point.

B1: Ustekinumab (antibody, human IgG1, kappa, V domains shown)
VH: EVQLVQSGAEVKKPGESLKISCKGSGYSFTTYWLGWVRQMPGKGLDWIGIMSPVDSDIRYSPSFQGQVTMSVDKSITTAYLQWNSLKASDTAMYYCARRRPGQGYFDFWGQGTLVTVSS
VL: DIQMTQSPSSLSASVGDRVTITCRASQGISSWLAWYQQKPEKAPKSLIYAASSLQSGVPSRFSGSGSGTDFTLTISSLQPEDFATYYCQQYNIYPYTFGQGTKLEIKR
notes: Control antibody; also called anti-IL-12/IL-23 p40 subunit antibody ustekinumab
In the case of B1, the IC50 in test [1] was 2.08 nM. For the same molecule, the binding result in test [2] and in test [8] was “no binding” in each case. The Kd in test [3] turned out to be 0.254 nM; in [4], 0.0844 nM; in test [5] it was 0.0387 nM. In addition, the figures for the koff in [3], in test [4] and in test [5] were 0.000236 s⁻¹, 0.000107 s⁻¹ and 0.00018 s⁻¹, respectively. In addition, the kon in test [3] was 931000 M⁻¹ s⁻¹; in test [4] it was 1.26e+06 M⁻¹ s⁻¹; in test [5] it was 4.66e+06 M⁻¹ s⁻¹. Further, the “IC50 (nM) for the inhibition of IL-23-induced IL-17 secretion” value in test [6] came out at 2.49 nM. In test [7], this molecule returned an EC50 of 0.786 nM.

B2: Belimumab (antibody, human IgG1, lambda, V domains shown)
VH: QVQLQQSGAEVKKPGSSVRVSCKASGGTFNNNAINWVRQAPGQGLEWMGGIIPMFGTAKYSQNFQGRVAITADESTGTASMELSSLRSEDTAVYYCARSRDLLLFPHHALSPWGRGTMVTVSS
VL: SSELTQDPAVSVALGQTVRVTCQGDSLRSYYASWYQQKPGQAPVLVIYGKNNRPSGIPDRFSGSSSGNTASLTITGAQAEDEADYYCSSRDSSGNHWVFGGGTELTVLG
notes: Marketed control antibody; also called anti-BAFF antibody belimumab
As for B2, the “IC50 (nM) for the inhibition of the BAFF-induced B cell proliferation” value in test [9] is 0.146 nM. Besides, the IC50 was found to be 0.567 nM in test [10] and 0.458 nM in test [11]. Further, the binding result in test [2] and in test [15] was “no binding” throughout. The values for the Kd in test [12], in test [13] and in [14] were 0.459 nM, 0.104 nM and 0.105 nM, respectively. The koff stood at 0.000221 s⁻¹ in test [12], 0.000144 s⁻¹ in test [13] and 0.000171 s⁻¹ in test [14]. Moreover, the values for the kon in [12], in [13] and in [14] were 481000 M⁻¹ s⁻¹, 1.38e+06 M⁻¹ s⁻¹ and 1.64e+06 M⁻¹ s⁻¹, respectively. For the same molecule, the “IC50 (read off the curve)” value in test [16] was roughly 0.7 nM.
